Assay results published in patent publication US20110044996A1 (published 2011).

The molecules below were run against T1, recombinant human GM-CSF (Peprotech) (human, UniProt P04141 18-144) (assay: SPR (BIAcore); recombinant human GM-CSF coated on CM5 chip, antibody injected at 66.7-4.17 nM).
Method: The binding kinetics of the 4K21 monoclonal antibody was determined using a Biacore and compared with the binding kinetics for a commercially available rat anti-human GM-CSF antibody from BD Biosciences (BD; Cat No. 554501) (see Table 1 below). Recombinant human GM-CSF was coated onto a CM5 chip to determine the binding kinetics of the 4K21 antibody. An uncoated flow cell was used as a reference. The antibody, prepared in HBS-EP at concentrations of 66.7 nM to 4.17 nM with 2-fold serial dilution, was injected for 2 minutes with a stabilisation time of 10 minutes and dissociation time of 15 minutes. The BIACore kinetic analysis wizard was run to determine each antibody's association (ka [1/Ms]), dissociation (kd[1/s]) and affinity (KD [nM]) to GM-CSF.

T1 sequence (P04141 18-144 limits assumed): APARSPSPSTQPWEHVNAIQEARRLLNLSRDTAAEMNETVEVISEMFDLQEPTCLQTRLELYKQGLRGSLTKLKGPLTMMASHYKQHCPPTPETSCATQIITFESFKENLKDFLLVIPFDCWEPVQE

Row | Ka [M⁻¹] | Kd [pM] | koff [s⁻¹] | kon [M⁻¹ s⁻¹] | Molecule
1 | > 5.2e+09 | < 190 | < 1e-05 | 52000 | commercially available rat anti-human GM-CSF antibody from BD Biosciences (Cat No. 554501)
2 | > 5.9e+09 | < 170 | < 1e-05 | 59000 | murine monoclonal antibody 4K21-O11-E14 (antibody, V domains shown, Murine hybridoma antibody (ECACC 07051601); also called 4K21-O11-E14 (mouse); mAb 4K21) VH: EVQLVESGGGLVKSGGSLKLSCAASGFAFSAYDMSWVRQTPEKRLELVAYISSGGSSFYYPDTVKGRFTISRDNAKNTLYLQMSSLKSEDTAMYYCTRHLGFDYWGQGTTLTVSS VL: DVVMTQTPLSLPVSLGDQASISCRSSQSLVNSNGNTYLHWFLQKPGQSPKLLIYKVSNRFSGVPDRFSGSGSGTDFTLKISRVEAEDLGVYFCSQSTHVPPTFGGGTKLEIK

What follows are molecules tested against T1, recombinant human GM-CSF (Peprotech) (assay: BIAcore, recombinant human GM-CSF amine-coupled to a CM5 chip, antibody at 1 ug/ml injected for 3 min).
Method: The binding affinity of the humanized antibodies was determined by BIACore analysis. Recombinant GM-CSF (Peprotech) at 100 μg/ml was prepared in sodium acetate, pH5, and immobilised to a CM5 sensor chip by amine coupling. Approximately 1200RU bound to the chip. The first experiment was to determine the binding activity of 15 humanized antibodies. These antibodies were prepared in HBS-EP at 1 μg/ml, injected for 3 minutes and compared to murine 4K21 and a commercially available anti GM-CSF antibody (BD).

Row | binding result | Molecule
3 | binds | hGM4/12 (antibody, V domains shown, Heavy h4/20 with human gamma 1 constant (hG1), light h4c with human kappa constant (hKa); also called h4K21-12) VH: EVQLVESGGGLVQPGGSLRLSCAASGFAFSAYDMSWVRQAPGKGLEWVSYISSGGSSFYYPDTVKGRFTISRDNAKNSLYLQMNSLRAEDTAVYYCARHLGFDYWGQGTLVTVSS VL: DVVMTQSPLSLPVTPGEPASISCRSSQSLVNSNGNTYLHWYLQKPGQSPQLLIYKVSNRFSGVPDRFSGSGSGTDFTLKISRVEAEDVGVYYCSQSTHVPPTFGGGTKVEIK
4 | binds | hGM4/13 (antibody, V domains shown, Heavy h4/30 with human gamma 1 constant (hG1), light h4c with human kappa constant (hKa); also called h4K21-13) VH: EVQLVESGGGLVQPGGSLRLSCSASGFAFSAYDMSWVRQAPGKGLEWVAYISSGGSSFYYPDTVKGRFTISRDNAKNSLFLQMSSLRAEDTAVYYCARHLGFDYWGQGTTVTVSS VL: DVVMTQSPLSLPVTPGEPASISCRSSQSLVNSNGNTYLHWYLQKPGQSPQLLIYKVSNRFSGVPDRFSGSGSGTDFTLKISRVEAEDVGVYYCSQSTHVPPTFGGGTKVEIK
5 | binds | hGM4/15 (antibody, V domains shown, Heavy h4/50 with human gamma 1 constant (hG1), light h4c with human kappa constant (hKa); also called h4K21-15) VH: EVQLVESGGGLVKSGGSLTLSCAASGFAFSAYDMSWIRQAPGKGLEWVSYISSGGSSFYYPDTVKGRFTISRDNAKNSLYLQMNSLKDEDTAVYYCARHLGFDYWGQGTLVTVSS VL: DVVMTQSPLSLPVTPGEPASISCRSSQSLVNSNGNTYLHWYLQKPGQSPQLLIYKVSNRFSGVPDRFSGSGSGTDFTLKISRVEAEDVGVYYCSQSTHVPPTFGGGTKVEIK
6 | no binding (tested: 1 ug/ml) | hGM4/14 (antibody, V domains shown, also called h4K21-14; humanised 4K21-14) VH: EVQLVESGGGLVQPGGFLRLSCAASGFAFSAYDMSWVRQAPGKGLVWVSYISSGGSSFYYPDTVKGRFTISRDNAKNTLYLQMNSLRAEDTAMYYCTFHLGFDYWGQGTTVTVSS VL: DVVMTQSPLSLPVTPGEPASISCRSSQSLVNSNGNTYLHWYLQKPGQSPQLLIYKVSNRFSGVPDRFSGSGSGTDFTLKISRVEAEDVGVYYCSQSTHVPPTFGGGTKVEIK

The molecules below were run against T1, recombinant human GM-CSF (Peprotech) (assay: SPR (BIAcore); recombinant human GM-CSF coupled to CM5 chip, antibody injected at 66.7-4.17 nM).
Method: A second experiment was performed to determine the kinetics with which these antibodies bind to human GM-CSF. A range of antibody concentration was prepared in HBS-EP from 66.7 nM to 4.17 nM with 2-fold serial dilution. Again direct binding was quantitated using recombinant GM-CSF coupled to a CM5 chip—an uncoated flow cell was used as a reference. The antibody at each concentration was injected for 2 minutes with a stabilisation time of 10 minutes and dissociation time of 15 minutes. The BIACore kinetic analysis wizard was run to determine each antibody's association (ka [1/Ms]), dissociation (kd[1/s]) and affinity (KD [nM]) to GM-CSF.

Row | Ka [M⁻¹] | Kd [pM] | koff [s⁻¹] | kon [M⁻¹ s⁻¹] | Molecule
7 | > 5.2e+09 | < 190 | < 1e-05 | 52000 | commercially available rat anti-human GM-CSF antibody from BD Biosciences (Cat No. 554501)
8 | 3.5e+09 | 290 | 4.7e-05 | 160000 | hGM4/2 (antibody, V domains shown, Heavy h4/20 with human gamma 1 constant (hG1), light h4a with human kappa constant (hKa); also called h4K21-2) VH: EVQLVESGGGLVQPGGSLRLSCAASGFAFSAYDMSWVRQAPGKGLEWVSYISSGGSSFYYPDTVKGRFTISRDNAKNSLYLQMNSLRAEDTAVYYCARHLGFDYWGQGTLVTVSS VL: DVVMTQSPLSLPVTLGQPASISCRSSQSLVNSNGNTYLHWFQQRPGQSPRRLIYKVSNRFSGVPDRFSGSGSGTDFTLKISRVEAEDVGVYYCSQSTHVPPTFGGGTKVEIK
9 | 7.1e+09 | 140 | 3e-05 | 210000 | hGM4/3 (antibody, V domains shown, Heavy h4/30 with human gamma 1 constant (hG1), light h4a with human kappa constant (hKa); also called h4K21-3; 4K21-3) VH: EVQLVESGGGLVQPGGSLRLSCSASGFAFSAYDMSWVRQAPGKGLEWVAYISSGGSSFYYPDTVKGRFTISRDNAKNSLFLQMSSLRAEDTAVYYCARHLGFDYWGQGTTVTVSS VL: DVVMTQSPLSLPVTLGQPASISCRSSQSLVNSNGNTYLHWFQQRPGQSPRRLIYKVSNRFSGVPDRFSGSGSGTDFTLKISRVEAEDVGVYYCSQSTHVPPTFGGGTKVEIK
10 | 7.6e+09 | 130 | 1.9e-05 | 140000 | hGM4/5 (antibody, V domains shown, Heavy h4/50 with human gamma 1 constant (hG1), light h4a with human kappa constant (hKa); also called h4K21-5) VH: EVQLVESGGGLVKSGGSLTLSCAASGFAFSAYDMSWIRQAPGKGLEWVSYISSGGSSFYYPDTVKGRFTISRDNAKNSLYLQMNSLKDEDTAVYYCARHLGFDYWGQGTLVTVSS VL: DVVMTQSPLSLPVTLGQPASISCRSSQSLVNSNGNTYLHWFQQRPGQSPRRLIYKVSNRFSGVPDRFSGSGSGTDFTLKISRVEAEDVGVYYCSQSTHVPPTFGGGTKVEIK
11 | > 5.9e+09 | < 170 | < 1e-05 | 59000 | murine monoclonal antibody 4K21-O11-E14 (antibody, V domains shown, Murine hybridoma antibody (ECACC 07051601); also called 4K21-O11-E14 (mouse); mAb 4K21) VH: EVQLVESGGGLVKSGGSLKLSCAASGFAFSAYDMSWVRQTPEKRLELVAYISSGGSSFYYPDTVKGRFTISRDNAKNTLYLQMSSLKSEDTAMYYCTRHLGFDYWGQGTTLTVSS VL: DVVMTQTPLSLPVSLGDQASISCRSSQSLVNSNGNTYLHWFLQKPGQSPKLLIYKVSNRFSGVPDRFSGSGSGTDFTLKISRVEAEDLGVYFCSQSTHVPPTFGGGTKLEIK
12 | 1.2e+10 | 81 | 1.6e-05 | 200000 | hGM4/6 (antibody, V domains shown, Heavy h4/10 with human gamma 1 constant (hG1), light h4b with human kappa constant (hKa); also called h4K21-6) VH: QVQLQESGGGLVKPGGSLKLSCAASGFAFSAYDMSWVRQTPDKRLEWVAYISSGGSSFYYPDTVKGRFTISRDNAKNTLYLQMSSLKSEDTAMYYCARHLGFDYWGQGTMVTVSS VL: DVVMTQSPLSLPVTLGQPASISCRSSQSLVNSNGNTYLHWFQQRPGQSPRRLIYKVSNRFSGVPDRFSGSGSGTDFTLKISRVEAEDVGVYYCSQSTHVPPTFGQGTKLEIK
13 | 7.7e+09 | 130 | 3.8e-05 | 290000 | hGM4/1 (antibody, V domains shown, Heavy h4/10 with human gamma 1 constant (hG1), light h4a with human kappa constant (hKa); also called h4K21-1; 4K21-1) VH: QVQLQESGGGLVKPGGSLKLSCAASGFAFSAYDMSWVRQTPDKRLEWVAYISSGGSSFYYPDTVKGRFTISRDNAKNTLYLQMSSLKSEDTAMYYCARHLGFDYWGQGTMVTVSS VL: DVVMTQSPLSLPVTLGQPASISCRSSQSLVNSNGNTYLHWFQQRPGQSPRRLIYKVSNRFSGVPDRFSGSGSGTDFTLKISRVEAEDVGVYYCSQSTHVPPTFGGGTKVEIK

Each molecule was assayed against T1, recombinant human GM-CSF (Peprotech) (assay: cell-based or functional assay).

Row | EC50, TF-1 cell growth (3H-thymidine) with GM-CSF [pM] | Molecule
14 | 311 | murine monoclonal antibody 4K21-O11-E14 (antibody, V domains shown, Murine hybridoma antibody (ECACC 07051601); also called 4K21-O11-E14 (mouse); mAb 4K21) VH: EVQLVESGGGLVKSGGSLKLSCAASGFAFSAYDMSWVRQTPEKRLELVAYISSGGSSFYYPDTVKGRFTISRDNAKNTLYLQMSSLKSEDTAMYYCTRHLGFDYWGQGTTLTVSS VL: DVVMTQTPLSLPVSLGDQASISCRSSQSLVNSNGNTYLHWFLQKPGQSPKLLIYKVSNRFSGVPDRFSGSGSGTDFTLKISRVEAEDLGVYFCSQSTHVPPTFGGGTKLEIK
15 | 5130 | hGM4/11 (antibody, V domains shown) VH: QVQLQESGGGLVKPGGSLKLSCAASGFAFSAYDMSWVRQTPDKRLEWVAYISSGGSSFYYPDTVKGRFTISRDNAKNTLYLQMSSLKSEDTAMYYCARHLGFDYWGQGTMVTVSS VL: DVVMTQSPLSLPVTPGEPASISCRSSQSLVNSNGNTYLHWYLQKPGQSPQLLIYKVSNRFSGVPDRFSGSGSGTDFTLKISRVEAEDVGVYYCSQSTHVPPTFGGGTKVEIK
16 | 220 | hGM4/34 (antibody, V domains shown) VH: QVQLQESGGGLVKPGGSLKLSCAASGFAFSAYDMSWVRQTPDKRLELVAYISSGGSSFYYPDTVKGRFTISRDNAKNTLYLQMSSLKSEDTAMYYCTRHLGFDYWGQGTMVTVSS VL: DVVMTQSPLSLPVTPGEPASISCRSSQSLVNSNGNTYLHWYLQKPGQSPQLLIYKVSNRFSGVPDRFSGSGSGTDFTLKISRVEAEDVGVYYCSQSTHVPPTFGGGTKVEIK
17 | 2120 | hGM4/22 (antibody, V domains shown) VH: QVQLQESGGGLVKPGGSLKLSCAASGFAFSAYDMSWVRQTPDKRLEWVAYISSGGSSFYYPDTVKGRFTISRDNAKNTLYLQMSSLKSEDTAMYYCTRHLGFDYWGQGTMVTVSS VL: DVVMTQSPLSLPVTPGEPASISCRSSQSLVNSNGNTYLHWYLQKPGQSPQLLIYKVSNRFSGVPDRFSGSGSGTDFTLKISRVEAEDVGVYYCSQSTHVPPTFGGGTKVEIK
18 | 1190 | hGM4/21 (antibody, V domains shown) VH: QVQLQESGGGLVKPGGSLKLSCAASGFAFSAYDMSWVRQTPDKRLELVAYISSGGSSFYYPDTVKGRFTISRDNAKNTLYLQMSSLKSEDTAMYYCARHLGFDYWGQGTMVTVSS VL: DVVMTQSPLSLPVTPGEPASISCRSSQSLVNSNGNTYLHWYLQKPGQSPQLLIYKVSNRFSGVPDRFSGSGSGTDFTLKISRVEAEDVGVYYCSQSTHVPPTFGGGTKVEIK
